Test results from patent US20240141041A1.

Molecular target: CD52 (human) (UniProt P31358)
Assay: cell-based or functional assay

depletion of infused CD4CAR T cells in mouse blood, 0.1 mg/kg CAMPATH, 6 h and 48 h: > 95%
Substance: CAMPATH (alemtuzumab) (antibody)
